Values of other authors in PMC7156917.

Legend:
CCR5 (Homo sapiens) = CCR5 (Homo sapiens) (UniProt P51681); assay: equilibrium binding assay
CXCR4 (Homo sapiens) = CXCR4 (Homo sapiens) (UniProt P61073); assay: SPR
Chain of UniProt P61073 (P61073 whole entry): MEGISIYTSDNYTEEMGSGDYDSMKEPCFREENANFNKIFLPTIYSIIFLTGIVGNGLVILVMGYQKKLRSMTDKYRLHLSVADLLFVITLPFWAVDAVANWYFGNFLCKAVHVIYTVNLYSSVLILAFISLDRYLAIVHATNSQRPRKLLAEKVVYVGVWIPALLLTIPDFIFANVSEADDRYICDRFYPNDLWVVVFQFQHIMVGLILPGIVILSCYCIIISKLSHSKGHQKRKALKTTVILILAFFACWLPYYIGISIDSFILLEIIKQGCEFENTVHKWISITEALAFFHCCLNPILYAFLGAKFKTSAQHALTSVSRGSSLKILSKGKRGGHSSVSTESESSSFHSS

Chain of UniProt P51681 (P51681 whole entry): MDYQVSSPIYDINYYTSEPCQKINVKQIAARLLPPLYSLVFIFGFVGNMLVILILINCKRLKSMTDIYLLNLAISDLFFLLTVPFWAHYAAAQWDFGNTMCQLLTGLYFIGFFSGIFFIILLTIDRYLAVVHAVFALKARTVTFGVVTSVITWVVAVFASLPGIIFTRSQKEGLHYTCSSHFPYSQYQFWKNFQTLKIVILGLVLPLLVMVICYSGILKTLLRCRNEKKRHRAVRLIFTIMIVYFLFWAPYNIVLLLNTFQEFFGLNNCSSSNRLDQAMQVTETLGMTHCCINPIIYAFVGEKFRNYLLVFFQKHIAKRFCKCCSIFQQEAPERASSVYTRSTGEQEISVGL

HIV Env gp120 gp120 (from UniProt O70902)
Kd (CCR5 (Homo sapiens)): 5 nM
Kd (CXCR4 (Homo sapiens)): 500 nM
